Reference: patent publication US10717774B2, “Compositions and methods for treating cancers” (Kiromic, Inc., priority 2016, dated 2020)

B1: CBPI1: novel Gal-3 N-terminal truncation protein, identical in sequence to native Gal-3 amino acids 109-250 (protein)
chain: APAGPLIVPYNLPLPGGVVPRMLITILGTVKPNANRIALDFQRGNDVAFHFNPRFNENNRRVIVCNTKLDNNWGREERQSVFPFESGKPFKIQVLVEPDHFKVAVNDAHLLQYNHRVKKLNEISKLGISGDIDLTSASYTMI
B2: CBPI2: novel Gal-3 N-terminal truncation protein, deletes amino acids 1-112, substitutions P113A, L114V, Y118N, and T248N (protein)
chain: AVIVPNNLPLPGGVVPRMLITILGTVKPNANRIALDFQRGNDVAFHFNPRFNENNRRVIVCNTKLDNNWGREERQSVFPFESGKPFKIQVLVEPDHFKVAVNDAHLLQYNHRVKKLNEISKLGISGDIDLTSASYNMI

Legend:
Assay type in all cases: cell-based, human
[1] = system: multiple myeloma cell line U266; assay: MTT assay in U266; conditions: protein alone, 20 μg/mL, 48 hours
Experimental: (§1) The human multiple myeloma cell line U266, ovarian cancer cell line SKOV3, and acute monocytic leukemia cell line THP1 were cultured in RPMI 1640 with 10% FBS. The breast cancer cell line MCF7 was cultured in Dulbecco's modified Eagle's medium (DMEM) with 10% FBS. Drugs were purchased from Merck Millipore and used at the following concentrations: Bortezomib (Bor) 5 nM; Cytarabine (Ara-c) 3.87 μM; Rapamycin (Rapa) 100 nM; Paclitaxel (Pax) 100 nM.
(§2) Cells were seeded in 96-well plates, at a volume of 100 μL cell suspension/well, in quadruplicate. SKOV3 and MCF7 cells were seeded at a density of 100,000 cells/mL. THP1 cells were seeded at a density of at 200,000 cells/mL; whereas, U266 cells were seeded at a density of 300,000 cells/mL. Cells were then treated with CBPI1 or CBPI2 at 20 μg/mL for 48 hours. For the last 24 hours, the appropriate drugs were added. Cell viability was subsequently assayed after 48 hours of incubation with 0.6 mg/mL MTT ((3-(4,5-dimethylthiazolyl-2)-2,5-diphenyltetrazolium bromide; Sigma-Aldrich) for 4 hours. Formazan crystals were dissolved in […] 0.01N HCL/isopropanol. Specific absorbance was measured at 570 nm with subtraction of background at 690 nm.
(§3) Data are represented as means±SD from at least three (3) independent experiments. ***^=P<0.001; **^=P<0.01; *^=P<0.05.

[2] = system: ovarian cancer cell line SKOV3; assay: MTT assay in SKOV3; conditions: for combined effect with Pax compared to Paclitaxel alone by MTT assay: 20 μg/mL 48 hours plus Paclitaxel 100 nM for the last 24 hours; for viability of metabolically-active cells (MTT): protein alone, 20 μg/mL, 48 hours, compared to the control cells
Experimental: as §1, §2, §3

[3] = system: ovarian cancer cell line SKOV3; assay: Detection of apoptosis (Annexin-V FITC / propidium iodide flow cytometry) in SKOV3; conditions: for apoptotic rate of SKOV3 cells: 20 μg/mL 48 hours, combined with Paclitaxel (Pax) 100 nM for the last 24 hours, compared with Paclitaxel alone
Experimental: as §1
Cells were seeded in 48-well at the same concentrations for the MTT assay. The cells were treated with CBPI1 or CBPI2 at 20 μg/mL for 48 hours. For the last 24 hours, the appropriate drugs were added. After 48 hours, the cells were washed with cold 1×PBS, resuspended in “Binding buffer 1×” (i.e., HEPES 0.01M; NaCl 0.14M; and CaCl2 2.5 mM) and incubated for 15 minutes with Annexin-V FITC (BD Biosciences)+Propidium Iodide (2.5 μg/mL final; Sigma-Aldrich) in the dark. Finally, 400 μL of Binding Buffer 1× were added to the tube and samples were processed and analyzed using the BD FACSVerse™ System (BD Biosciences).
as §3
FIG. 6—After the indicated treatments, the cells were analyzed for apoptosis by flow-cytometry. Plots represent the relative of fluorescence intensities in the green (FL1, horizontal axis) and red (FL2, vertical axis) channels. The apoptosis detector, Annexin-V, is linked to a green fluorescent molecule (FITC), and produces a fluorescent signal in the FL1 channel. Cells in late apoptosis are unable to pump propidium iodide (PI) out of the cytoplasm, and are therefore red fluorescent. Red fluorescence is thus picked up by the flow-cytometer in the FL2 channel. Each dot represents a fluorescent signal (cell), detected by the flow-cytometer. Each dot-plot is divided into 4 quadrants. From bottom-left and proceeding counter-clockwise, these are Q1, Q2, Q3, and Q4. […]

[4] = system: acute monocytic leukemia cell line THP1; assay: Detection of apoptosis (Annexin-V FITC / propidium iodide flow cytometry) in THP1; conditions: 20 μg/mL 48 hours, in combination with Ara-C 3.87 μM for the last 24 hours; compared to the control cells
Experimental: as §1
(§4) Cells were seeded in 48-well at the same concentrations for the MTT assay. The cells were treated with CBPI1 or CBPI2 at 20 μg/mL for 48 hours. For the last 24 hours, the appropriate drugs were added. […] Finally, 400 μL of Binding Buffer 1× were added to the tube and samples were processed and analyzed using the BD FACSVerse™ System (BD Biosciences). […]
(§5) FIG. 6—After the indicated treatments, the cells were analyzed for apoptosis by flow-cytometry. Plots represent the relative of fluorescence intensities in the green (FL1, horizontal axis) and red (FL2, vertical axis) channels. […] Red fluorescence is thus picked up by the flow-cytometer in the FL2 channel. Each dot represents a fluorescent signal (cell), detected by the flow-cytometer. […]

[5] = system: breast cancer cell line MCF7; assay: Detection of apoptosis (Annexin-V FITC / propidium iodide flow cytometry) in MCF7; conditions: protein alone, 20 μg/mL, 48 hours; compared to the control cells
Experimental: as §1, §4, §5

[6] = system: breast cancer cell line MCF7; assay: MTT assay in MCF7; conditions: protein alone, 20 μg/mL, 48 hours
Experimental: as §1, §2, §3

[7] = system: multiple myeloma cell line U266; assay: Detection of apoptosis (Annexin-V FITC / propidium iodide flow cytometry) in U266; conditions: 20 μg/mL 48 hours, combined with Bortezomib (Bor) 5 nM for the last 24 hours; compared with Bor alone
Experimental: as §1, §4, §5

[8] = system: acute monocytic leukemia cell line THP1; assay: MTT assay in THP1; conditions: protein alone, 20 μg/mL, 48 hours
Experimental: as §1, §2, §3

Molecule	viability of metabolically-active cells (MTT) [1]	combined effect with Pax compared to Paclitaxel alone by MTT assay [2]	viability of metabolically-active cells (MTT) [2]	apoptotic rate of SKOV3 cells [3]	apoptotic rate of THP1 cells [4]	MCF7 cells apoptotic rate [5]	viability of metabolically-active cells (MTT) [6]	U266 cells apoptosis rate [7]	viability of metabolically-active cells (MTT) [8]	apoptosis in ovarian cancer cells ([3]; protein alone, 20 μg/mL, 48 hours, SKOV3)
B1	significantly decrease	not evident	significantly decrease	significantly increase	significantly increase					
B2	significantly decrease	not evident	significantly decrease	significantly increase	significantly increase	significantly increases	significantly decreases	significantly increase	significantly decreases	effective in causing apoptosis
